Measured values taken from publication PMC3630055, “Bovine HEXIM1 inhibits bovine immunodeficiency virus replication through regulating BTat-mediated transactivation” (Veterinary Research, 2013).

Target: T1, His-BHEXIM1 (bovine, UniProt Q0X0C4 1-320)
T1 construct: bovine HEXIM1 (320 amino acids); pETH vector; the only BHEXIM1 cDNA described was amplified from the start to the stop codon (320 aa), so the construct is probably whole; also called purified BHEXIM1 protein; source: E. coli BL21 (DE3), purified (His Sepharose 6)
T1 sequence (looked up): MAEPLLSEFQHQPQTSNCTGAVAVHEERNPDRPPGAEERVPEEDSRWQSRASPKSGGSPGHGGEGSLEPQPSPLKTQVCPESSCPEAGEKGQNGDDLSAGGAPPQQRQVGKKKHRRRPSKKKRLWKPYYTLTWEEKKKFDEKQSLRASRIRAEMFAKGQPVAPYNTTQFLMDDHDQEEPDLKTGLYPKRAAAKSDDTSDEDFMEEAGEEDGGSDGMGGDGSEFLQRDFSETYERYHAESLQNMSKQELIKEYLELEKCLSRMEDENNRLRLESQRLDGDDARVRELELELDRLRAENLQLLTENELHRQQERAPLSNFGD
Test: pull-down; purified GST or GST-B-cyclin T1 immobilised on glutathione Sepharose 4B beads, incubated with purified His-fusion proteins; anti-His immunoblot; in the competition 20 μg GST-B-cyclin T1, 5 μg His-BTat and 1, 5, 10, 20 μg His-BHEXIM1
Conditions: both partners purified

B1: GST-B-cyclin T1 (aa 1-272) (domain or fragment, bovine, UniProt Q6T8E9 1-272, looked up)
chain: MEGERKNNNKRWYFTREQLENSPSRRFGLDPDKELSNRQQAANLLQDMGQRLNVSQLTINTAIVYMHRFYMIQSFTQFHRNSVAPAALFLAAKVEEQPKKLEHVIKVAHTCLHPQESLPDTRSEAYLQQVQDLVILESIILQTLGFELTIDHPHTHVVKCTQLVRASKDLAQTSYFMATNSLHLTTFSLQYTPPVVACVCIHLACKWSNWEIPVSTDGKHWWEYVDATVTLELLDELTHEFLQILEKTPNRLKRIWNWRAWQADRKTKADDR
notes: bovine cyclin T1, residues 1-272; pGEX6p-1 vector; source: E. coli BL21 (DE3), purified (glutathione Sepharose 4B)
B1: binds.
